Reference: US20230250157A1 (CALIFORNIA INSTITUTE OF TECHNOLOGY, published 2023)

Target: SARS-CoV-2 WA1 D614G spike on pseudovirus (SARS-CoV-2 WA1, UniProt P0DTC2 14-1252)
Assay: cell-based or functional assay

B1: M8a-3 (antibody, V domains shown)
VH: QVQLQQPGAELVLPGASVKLSCKASGYTFTNYWMHWVKQRPGHGLEWIGEIDPFDTYIKINQKFKGKSTLTVDTSSSTAYMQLSSLTSEDSAVYYCARPDSSGYPVYFDYWGQGTTLTVSS
VL: DIVMTQSHKFMSTSVGDRVSITCKASQDVGTYIAWYQQKPGQSPKLLIYWASTRHTGVPDRFTGSGSGTNYTLTISSVQAEDLALYHCQQHYSTPYTFGGGTKLEIK
B1 was tested, and the “pseudovirus neutralization IC50” value was 0.18 µg/mL.
